Data taken from US20170247476A1 (Amgen, published 2017).

Target: HER2 (human, UniProt P04626 23-1255)
Assay: cell-based or functional assay

Binder	EC50 Cytolysis (ng/mL), -MMP2; TDCC of SKOV-3 cells with pan T cells	EC50 Cytolysis (ng/mL), +MMP2; TDCC of SKOV-3 cells with pan T cells
CD3ε(1-27)-MMP-2csV3-aCD3-aHER2-Xbody (bispecific antibody) chain 1: not shown chain 2: QDGNEEMGGITQTPYKVSISGTTVILTGGGGSGGGGSGGGGSPLGLAGEVQLVESGGGLVQPGGSLKLSCAASGFTFNSYAMNWVRQAPGKGLEWVARIRSKYNNYATYYADSVKGRFTISRDDSKNTAYLQMNNLKTEDTAVYYCVRHGNFGNSYVSWWAYWGQGTLVTVSSGGGGSGGGGSELVMTQTPSSLSASLGDRVTISCRASQDISNYLNWYQQKPDGTVKLLIYYTSRLHSGVPSRFSGSGSGTDYSLTISNLEQEDIATYFCQQGNTLPLTFGAGTKLEIKASTKGPSVFPLAPCSRSTSESTAALGCLVKDYFPEPVTVSWNSGALTSGVHTFPAVLQSSGLYSLSSVVTVPSSNFGTQTYTCNVDHKPSNTKVDKTVGGGGSAAAEPKSSDKTHTCPPCPAPEAAGGPSVFLFPPKPKDTLMISRTPEVTCVVVDVSHEDPEVKFNWYVDGVEVHNAKTKPREEQYNSTYRVVSVLTVLHQDWLNGKEYKCKVSNKALPAPIEKTISKAKGQPREPQVYTLPPSREEMTKNQVSLTCLVKGFYPSDIAVEWESNGQPENNYDTTPPVLDSDGSFFLYSDLTVDKSRWQQGNVFSCSVMHEALHNHYTQKSLSLSPGK	5.49 ng/mL	
aCD3-aHER2-mxb (bispecific antibody) chain 1: EVQLLEQSGAELVRPGALVKLSCKASGFKIKDYFVNWVKQRPEQGLEWIGWIDPENDNSLYGPNFQDKASITADTSSNTGYLQLSGLTSEDTAVYYCALYYGSRGDAMDYWGQGTTVTVSSGGGGSGGGGSGGGGSELVMTQTPSSLSASLGDRVTISCRASQDISNYLNWYQQKPDGTVKLLIYYTSRLHSGVPSRFSGSGSGTDYSLTISNLEQEDIATYFCQQGNTLPLTFGAGTKLEIKAAAEPKSSDKTHTCPPCPAPEAAGGPSVFLFPPKPKDTLMISRTPEVTCVVVDVSHEDPEVKFNWYVDGVEVHNAKTKPREEQYNSTYRVVSVLTVLHQDWLNGKEYKCKVSNKALPAPIEKTISKAKGQPREPQVYTLPPSRKEMTKNQVSLTCLVKGFYPSDIAVEWESNGQPENNYKTTPPVLKSDGSFFLYSKLTVDKSRWQQGNVFSCSVMHEALHNHYTQKSLSLSPGKAAAHHHHHH chain 2: not shown	0.184 ng/mL	
CD3ε(1-27)-FURINcsV1-aCD3-aHER2-Xbody (bispecific antibody) chain 1: not shown chain 2: QDGNEEMGGITQTPYKVSISGTTVILTGGGGSGGGGSGGGGSRRRRREVQLVESGGGLVQPGGSLKLSCAASGFTFNSYAMNWVRQAPGKGLEWVARIRSKYNNYATYYADSVKGRFTISRDDSKNTAYLQMNNLKTEDTAVYYCVRHGNFGNSYVSWWAYWGQGTLVTVSSGGGGSGGGGSELVMTQTPSSLSASLGDRVTISCRASQDISNYLNWYQQKPDGTVKLLIYYTSRLHSGVPSRFSGSGSGTDYSLTISNLEQEDIATYFCQQGNTLPLTFGAGTKLEIKASTKGPSVFPLAPCSRSTSESTAALGCLVKDYFPEPVTVSWNSGALTSGVHTFPAVLQSSGLYSLSSVVTVPSSNFGTQTYTCNVDHKPSNTKVDKTVGGGGSAAAEPKSSDKTHTCPPCPAPEAAGGPSVFLFPPKPKDTLMISRTPEVTCVVVDVSHEDPEVKFNWYVDGVEVHNAKTKPREEQYNSTYRVVSVLTVLHQDWLNGKEYKCKVSNKALPAPIEKTISKAKGQPREPQVYTLPPSREEMTKNQVSLTCLVKGFYPSDIAVEWESNGQPENNYDTTPPVLDSDGSFFLYSDLTVDKSRWQQGNVFSCSVMHEALHNHYTQKSLSLSPGK	0.276 ng/mL	0.332 ng/mL
CD3ε(1-27)-aCD3-aHER2-Xbody (bispecific antibody) chain 1: not shown chain 2: QDGNEEMGGITQTPYKVSISGTTVILTGGGGSGGGGSGGGGSEVQLVESGGGLVQPGGSLKLSCAASGFTFNSYAMNWVRQAPGKGLEWVARIRSKYNNYATYYADSVKGRFTISRDDSKNTAYLQMNNLKTEDTAVYYCVRHGNFGNSYVSWWAYWGQGTLVTVSSGGGGSGGGGSELVMTQTPSSLSASLGDRVTISCRASQDISNYLNWYQQKPDGTVKLLIYYTSRLHSGVPSRFSGSGSGTDYSLTISNLEQEDIATYFCQQGNTLPLTFGAGTKLEIKASTKGPSVFPLAPCSRSTSESTAALGCLVKDYFPEPVTVSWNSGALTSGVHTFPAVLQSSGLYSLSSVVTVPSSNFGTQTYTCNVDHKPSNTKVDKTVGGGGSAAAEPKSSDKTHTCPPCPAPEAAGGPSVFLFPPKPKDTLMISRTPEVTCVVVDVSHEDPEVKFNWYVDGVEVHNAKTKPREEQYNSTYRVVSVLTVLHQDWLNGKEYKCKVSNKALPAPIEKTISKAKGQPREPQVYTLPPSREEMTKNQVSLTCLVKGFYPSDIAVEWESNGQPENNYDTTPPVLDSDGSFFLYSDLTVDKSRWQQGNVFSCSVMHEALHNHYTQKSLSLSPGK	6.12 ng/mL	6.73 ng/mL

The next lines start with the values.

EC50 Cytolysis (ng/mL), -MMP2; TDCC of SKOV-3 cells with pan T cells	EC50 Cytolysis (ng/mL), +MMP2; TDCC of SKOV-3 cells with pan T cells	Binder
	0.205 ng/mL	CD3ε(1-27)-MMP-2csV3-aCD3-aHER2-Xbody, digested with MMP-2 (bispecific antibody) chain 1: not shown chain 2: LAGEVQLVESGGGLVQPGGSLKLSCAASGFTFNSYAMNWVRQAPGKGLEWVARIRSKYNNYATYYADSVKGRFTISRDDSKNTAYLQMNNLKTEDTAVYYCVRHGNFGNSYVSWWAYWGQGTLVTVSSGGGGSGGGGSELVMTQTPSSLSASLGDRVTISCRASQDISNYLNWYQQKPDGTVKLLIYYTSRLHSGVPSRFSGSGSGTDYSLTISNLEQEDIATYFCQQGNTLPLTFGAGTKLEIKASTKGPSVFPLAPCSRSTSESTAALGCLVKDYFPEPVTVSWNSGALTSGVHTFPAVLQSSGLYSLSSVVTVPSSNFGTQTYTCNVDHKPSNTKVDKTVGGGGSAAAEPKSSDKTHTCPPCPAPEAAGGPSVFLFPPKPKDTLMISRTPEVTCVVVDVSHEDPEVKFNWYVDGVEVHNAKTKPREEQYNSTYRVVSVLTVLHQDWLNGKEYKCKVSNKALPAPIEKTISKAKGQPREPQVYTLPPSREEMTKNQVSLTCLVKGFYPSDIAVEWESNGQPENNYDTTPPVLDSDGSFFLYSDLTVDKSRWQQGNVFSCSVMHEALHNHYTQKSLSLSPGK
	0.22 ng/mL	CD3ε(1-27)-MMP-2csV2-aCD3-aHER2-Xbody, digested with MMP-2 (bispecific antibody) chain 1: not shown chain 2: MLSQSEVQLVESGGGLVQPGGSLKLSCAASGFTFNSYAMNWVRQAPGKGLEWVARIRSKYNNYATYYADSVKGRFTISRDDSKNTAYLQMNNLKTEDTAVYYCVRHGNFGNSYVSWWAYWGQGTLVTVSSGGGGSGGGGSELVMTQTPSSLSASLGDRVTISCRASQDISNYLNWYQQKPDGTVKLLIYYTSRLHSGVPSRFSGSGSGTDYSLTISNLEQEDIATYFCQQGNTLPLTFGAGTKLEIKASTKGPSVFPLAPCSRSTSESTAALGCLVKDYFPEPVTVSWNSGALTSGVHTFPAVLQSSGLYSLSSVVTVPSSNFGTQTYTCNVDHKPSNTKVDKTVGGGGSAAAEPKSSDKTHTCPPCPAPEAAGGPSVFLFPPKPKDTLMISRTPEVTCVVVDVSHEDPEVKFNWYVDGVEVHNAKTKPREEQYNSTYRVVSVLTVLHQDWLNGKEYKCKVSNKALPAPIEKTISKAKGQPREPQVYTLPPSREEMTKNQVSLTCLVKGFYPSDIAVEWESNGQPENNYDTTPPVLDSDGSFFLYSDLTVDKSRWQQGNVFSCSVMHEALHNHYTQKSLSLSPGK
0.128 ng/mL		aCD3-aHER2-Xbody (bispecific antibody) chain 1: not shown chain 2: EVQLVESGGGLVQPGGSLKLSCAASGFTFNSYAMNWVRQAPGKGLEWVARIRSKYNNYATYYADSVKGRFTISRDDSKNTAYLQMNNLKTEDTAVYYCVRHGNFGNSYVSWWAYWGQGTLVTVSSGGGGSGGGGSELVMTQTPSSLSASLGDRVTISCRASQDISNYLNWYQQKPDGTVKLLIYYTSRLHSGVPSRFSGSGSGTDYSLTISNLEQEDIATYFCQQGNTLPLTFGAGTKLEIKASTKGPSVFPLAPCSRSTSESTAALGCLVKDYFPEPVTVSWNSGALTSGVHTFPAVLQSSGLYSLSSVVTVPSSNFGTQTYTCNVDHKPSNTKVDKTVGGGGSAAAEPKSSDKTHTCPPCPAPEAAGGPSVFLFPPKPKDTLMISRTPEVTCVVVDVSHEDPEVKFNWYVDGVEVHNAKTKPREEQYNSTYRVVSVLTVLHQDWLNGKEYKCKVSNKALPAPIEKTISKAKGQPREPQVYTLPPSREEMTKNQVSLTCLVKGFYPSDIAVEWESNGQPENNYDTTPPVLDSDGSFFLYSDLTVDKSRWQQGNVFSCSVMHEALHNHYTQKSLSLSPGK
2.62 ng/mL		CD3ε(1-27)-MMP-2csV2-aCD3-aHER2-Xbody (bispecific antibody) chain 1: not shown chain 2: QDGNEEMGGITQTPYKVSISGTTVILTGGGGSGGGGSGGGGSGGPLGMLSQSEVQLVESGGGLVQPGGSLKLSCAASGFTFNSYAMNWVRQAPGKGLEWVARIRSKYNNYATYYADSVKGRFTISRDDSKNTAYLQMNNLKTEDTAVYYCVRHGNFGNSYVSWWAYWGQGTLVTVSSGGGGSGGGGSELVMTQTPSSLSASLGDRVTISCRASQDISNYLNWYQQKPDGTVKLLIYYTSRLHSGVPSRFSGSGSGTDYSLTISNLEQEDIATYFCQQGNTLPLTFGAGTKLEIKASTKGPSVFPLAPCSRSTSESTAALGCLVKDYFPEPVTVSWNSGALTSGVHTFPAVLQSSGLYSLSSVVTVPSSNFGTQTYTCNVDHKPSNTKVDKTVGGGGSAAAEPKSSDKTHTCPPCPAPEAAGGPSVFLFPPKPKDTLMISRTPEVTCVVVDVSHEDPEVKFNWYVDGVEVHNAKTKPREEQYNSTYRVVSVLTVLHQDWLNGKEYKCKVSNKALPAPIEKTISKAKGQPREPQVYTLPPSREEMTKNQVSLTCLVKGFYPSDIAVEWESNGQPENNYDTTPPVLDSDGSFFLYSDLTVDKSRWQQGNVFSCSVMHEALHNHYTQKSLSLSPGK
0.112 ng/mL	0.256 ng/mL	CD3ε(1-27)-FURINcsV2-aCD3-aHER2-Xbody (bispecific antibody) chain 1: not shown chain 2: QDGNEEMGGITQTPYKVSISGTTVILTGGGGSGGGGSGGGGSGQSSRHRRALEVQLVESGGGLVQPGGSLKLSCAASGFTFNSYAMNWVRQAPGKGLEWVARIRSKYNNYATYYADSVKGRFTISRDDSKNTAYLQMNNLKTEDTAVYYCVRHGNFGNSYVSWWAYWGQGTLVTVSSGGGGSGGGGSELVMTQTPSSLSASLGDRVTISCRASQDISNYLNWYQQKPDGTVKLLIYYTSRLHSGVPSRFSGSGSGTDYSLTISNLEQEDIATYFCQQGNTLPLTFGAGTKLEIKASTKGPSVFPLAPCSRSTSESTAALGCLVKDYFPEPVTVSWNSGALTSGVHTFPAVLQSSGLYSLSSVVTVPSSNFGTQTYTCNVDHKPSNTKVDKTVGGGGSAAAEPKSSDKTHTCPPCPAPEAAGGPSVFLFPPKPKDTLMISRTPEVTCVVVDVSHEDPEVKFNWYVDGVEVHNAKTKPREEQYNSTYRVVSVLTVLHQDWLNGKEYKCKVSNKALPAPIEKTISKAKGQPREPQVYTLPPSREEMTKNQVSLTCLVKGFYPSDIAVEWESNGQPENNYDTTPPVLDSDGSFFLYSDLTVDKSRWQQGNVFSCSVMHEALHNHYTQKSLSLSPGK
